Measured values taken from article PMC7618776, “Direct recruitment of Mis18 to interphase spindle pole bodies promotes CENP-A chromatin assembly” (Current biology : CB, 2023).

Biological target: T1, 6His-msfGFP-TEV-Mis18FL (S. pombe, UniProt Q9P802 1-194)
T1 construct: Mis18, S. pombe, full length (residues 1-194); Cloned into the vector pET His6 msfGFP TEV (9GFP, Addgene 48287); also called GFP-Mis18; 6His-GFP-Mis18FL; source: E. coli BL21 Gold, purified (HisTrap HP, SEC); not shown: msfGFP, N-terminal, kept
T1 sequence (looked up): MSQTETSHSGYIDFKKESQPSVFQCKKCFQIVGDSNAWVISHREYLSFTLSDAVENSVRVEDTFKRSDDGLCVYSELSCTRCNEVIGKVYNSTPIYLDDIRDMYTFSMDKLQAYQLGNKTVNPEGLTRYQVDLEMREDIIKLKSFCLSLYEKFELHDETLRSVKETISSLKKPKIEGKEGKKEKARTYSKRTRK
Assay: pull-down; 6His-MBP-Sad1(2-167) or 6His-MBP on amylose resin mixed with candidate binding proteins, each protein at 5 μM; 20 mM HEPES pH 7.0, 150 mM NaCl, 1 mM TCEP, 0.01% Tween-20; 4°C 1 hr; Coomassie-stained SDS-PAGE
Settings: both partners purified

B1: 6His-MBP-Sad1(2-167) (domain or fragment, S. pombe, UniProt Q09825 2-167, looked up)
chain: FTNTPVGGKRERQNGAHPAWSTLGANSAQIHQNTADLASKMHKLRYTKIRSPPTRVSIESITPKQRFPAPNFEQAYHSNIRYEQEESDNEEFENVVKNGHEASTNVFYESDGDDEEFVNEEYENSIDEESDDEGYSLNEDTTATNASFRYPMNQRSTRKSQFYSSK
notes: Cloned into the vector pET-6His-MBP-TEV (9C, Addgene 48286) by LIC; also called MBP-Sad1-N; source: E. coli BL21-CodonPlus (DE3)-RIPL, purified (TALON resin); not shown: His6, N-terminal, kept; MBP, N-terminal, kept
B1: binds.
